The results in this text go back to the supplement of paper PMC7125110.

B1: glmS ribozyme (parent)
chain: AUAAAAGCGCCAGAACUACAGAAAUGUAGUUGACGAGGAGGAGGUUUAUCGAAUUUUCGGCGGAUGCCUCCAAA

± gives the standard error. Fewer inactive variants are shown than the library holds.

Variants of B1 are the subject of the first series. Nature of the series: self-cleavage kobs at 10000 uM GlcN6P; higher = faster cleavage; RNA array. To be noted: with glucosamine-6-phosphate. The method in brief: (§1)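 kcat and KM were obtained from weighted Michaelis–Menten fits across concentrations of kobs values. Those came from one- or two-exponential decay fits to per-tile medians normalised to baseline and to non-cleaving reference variants. The variants were barcoded ribozymes transcribed in situ by E. coli RNA polymerase on sequenced MiSeq chips and tracked through a hybridised Cy3 probe at 37 °C, with 40 μM to 10 mM glucosamine-6-phosphate in HEPES/KCl/Mg(OAc)2 buffer flowed in.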
Take C8U U30G G43C: the “self-cleavage kobs at 10000 uM GlcN6P” value was below 1e-05 s⁻¹.

Regarding U30C G35U G43U G66U, the “self-cleavage kobs at 10000 uM GlcN6P” value was below 1e-05 s⁻¹. Consider A6U G59A U69G, for which the “self-cleavage kobs at 10000 uM GlcN6P” value was below 1e-05 s⁻¹. Same read-out and setting: in the case of A15C A64G C67G C68U it was below 1e-05 s⁻¹; in that of C8U C61U C68G, 0.000133 ± 4.3e-05 s⁻¹. For the variant A53C U55G C67U, the “self-cleavage kobs at 10000 uM GlcN6P” value is 0.00164 ± 0.00038 s⁻¹. With G13C U55G C58G, the “self-cleavage kobs at 10000 uM GlcN6P” value is 4.29e-05 ± 1.4e-05 s⁻¹.

For the variant C8U G32C A33C G40C, the “self-cleavage kobs at 10000 uM GlcN6P” value is below 1e-05 s⁻¹. Turning to G32U G41A A53G, the “self-cleavage kobs at 10000 uM GlcN6P” value worked out at 0.000262 ± 6.5e-05 s⁻¹.

With U46G C50G C67G, the “self-cleavage kobs at 10000 uM GlcN6P” value was below 1e-05 s⁻¹. In the case of A39C U49A C61U C70G, the “self-cleavage kobs at 10000 uM GlcN6P” value was below 1e-05 s⁻¹. Still for that read-out and setting: the figure for U45G G59U is 4.05e-05 ± 1.2e-05 s⁻¹; for U45G G59A it is 7.24e-05 ± 1.4e-05 s⁻¹; for G35C C50G A53C it is 3.34e-05 ± 8.6e-06 s⁻¹.

In the case of G35C C50A G51A, the “self-cleavage kobs at 10000 uM GlcN6P” value is below 1e-05 s⁻¹.

Consider G13A G38U, for which the “self-cleavage kobs at 10000 uM GlcN6P” value is below 1e-05 s⁻¹. For the variant G7U C8A G9U U31C A33U, the “self-cleavage kobs at 10000 uM GlcN6P” value is below 1e-05 s⁻¹. With U30G A53U U69A, the “self-cleavage kobs at 10000 uM GlcN6P” value came out at 4.29e-05 ± 1.8e-05 s⁻¹.

Turning to A28C C68U, the “self-cleavage kobs at 10000 uM GlcN6P” value was 0.00228 ± 0.00063 s⁻¹. With C16A U31C G41C C68A, the “self-cleavage kobs at 10000 uM GlcN6P” value is below 1e-05 s⁻¹. Consider C10A A12G G35C U56A U69A, for which the “self-cleavage kobs at 10000 uM GlcN6P” value was determined as 0.000264 ± 7.7e-05 s⁻¹. In the case of A36G G37C A42C A48C U65G, the “self-cleavage kobs at 10000 uM GlcN6P” value was below 1e-05 s⁻¹. Consider A12G A14C C67U, for which the “self-cleavage kobs at 10000 uM GlcN6P” value was found to be 7.11e-05 ± 1.5e-05 s⁻¹.

On to A15G G44U C58U C67A, for which the “self-cleavage kobs at 10000 uM GlcN6P” value was found to be 2.9e-05 ± 1.2e-05 s⁻¹. G44C U65G C67U: the “self-cleavage kobs at 10000 uM GlcN6P” value was found to be 0.000247 ± 8.5e-05 s⁻¹. C8U C50A G51U A52U: the “self-cleavage kobs at 10000 uM GlcN6P” value was below 1e-05 s⁻¹.

Regarding C10U C11U G66C, the “self-cleavage kobs at 10000 uM GlcN6P” value was below 1e-05 s⁻¹. On the same count and under the same terms, in the case of A12G A36C C67G it was below 1e-05 s⁻¹; in that of A12G A14U C58A, 0.000276 ± 5.2e-05 s⁻¹; in that of G44U G66C C71A, below 1e-05 s⁻¹. For the variant C11G G29U C34A A36U G37U G44C C68U, the “self-cleavage kobs at 10000 uM GlcN6P” value is below 1e-05 s⁻¹.

With G13U A15U G62A C68A C70G, the “self-cleavage kobs at 10000 uM GlcN6P” value is below 1e-05 s⁻¹.

A36C G41U C50G G60U C61G: the “self-cleavage kobs at 10000 uM GlcN6P” value is below 1e-05 s⁻¹. Turning to C10U U49G C58G, the “self-cleavage kobs at 10000 uM GlcN6P” value is below 1e-05 s⁻¹. In the case of C16A U30G C34U, the “self-cleavage kobs at 10000 uM GlcN6P” value is below 1e-05 s⁻¹.

Turning to G40C G43U G51U, the “self-cleavage kobs at 10000 uM GlcN6P” value was below 1e-05 s⁻¹. On the same count and under the same terms, in the case of U30C G38A G63C U69C it was below 1e-05 s⁻¹. The same measure, in the same setting: the figure for A14U U46G A53G is 0.000633 ± 9.6e-05 s⁻¹; for A14U A53U C68G it is 5.14e-05 ± 1.1e-05 s⁻¹. Turning to A12G U57C C58G, the “self-cleavage kobs at 10000 uM GlcN6P” value came out at 2.94e-05 ± 1.4e-05 s⁻¹. The same measure, in the same setting: in the case of G37C A42C U57A it was below 1e-05 s⁻¹; in that of U31A A39C U56G, 0.00147 ± 0.0004 s⁻¹. On the same count and under the same terms, the figure for C8G G9A G35A A36U is below 1e-05 s⁻¹; for C34A G43A U49G C70G it is below 1e-05 s⁻¹. On to A42U C58U G59U U65A C70G, for which the “self-cleavage kobs at 10000 uM GlcN6P” value is below 1e-05 s⁻¹. On to A36C G38U A39C G62U, for which the “self-cleavage kobs at 10000 uM GlcN6P” value is below 1e-05 s⁻¹.

Consider C11G C61G, for which the “self-cleavage kobs at 10000 uM GlcN6P” value was below 1e-05 s⁻¹. As to G32A G37C G40A, the “self-cleavage kobs at 10000 uM GlcN6P” value was below 1e-05 s⁻¹. As to C19G G37A, the “self-cleavage kobs at 10000 uM GlcN6P” value amounted to 0.00215 ± 0.00044 s⁻¹.

In the case of A42G U55C G60A, the “self-cleavage kobs at 10000 uM GlcN6P” value is 4.43e-05 ± 1.7e-05 s⁻¹. On to A6U A12U A53G C67G, for which the “self-cleavage kobs at 10000 uM GlcN6P” value worked out at 8.82e-05 ± 1.8e-05 s⁻¹. A33C A39G U69G: the “self-cleavage kobs at 10000 uM GlcN6P” value is below 1e-05 s⁻¹.

On to U31C C58A G63U, for which the “self-cleavage kobs at 10000 uM GlcN6P” value is below 1e-05 s⁻¹. Turning to C50U G60U C61A, the “self-cleavage kobs at 10000 uM GlcN6P” value is below 1e-05 s⁻¹. Still for that read-out and setting: in the case of A14G C34A G38A C67A it was below 1e-05 s⁻¹; in that of G29U G35C G43C G59A, below 1e-05 s⁻¹. The same measure, in the same setting: the figure for A14C U31A U69G is 5.33e-05 ± 1.5e-05 s⁻¹; for G7U G29U G32A A42U U55C G62C it is below 1e-05 s⁻¹; for A12C G62U C71U it is below 1e-05 s⁻¹. The same measure, in the same setting: in the case of A52C C68U C70U it was 3.87e-05 ± 1.7e-05 s⁻¹; in that of C11U G60A C68G, 5.38e-05 ± 1.9e-05 s⁻¹. For the variant G37A A39G U54G U55A, the “self-cleavage kobs at 10000 uM GlcN6P” value amounted to 0.00276 ± 0.00061 s⁻¹. With G13U U30A C58U G59U, the “self-cleavage kobs at 10000 uM GlcN6P” value was below 1e-05 s⁻¹. For the variant C11U G38U C50A, the “self-cleavage kobs at 10000 uM GlcN6P” value is below 1e-05 s⁻¹.

Consider G40A G51U C68U, for which the “self-cleavage kobs at 10000 uM GlcN6P” value was below 1e-05 s⁻¹. As for A33C G38A C58A, the “self-cleavage kobs at 10000 uM GlcN6P” value is below 1e-05 s⁻¹. In the case of C58G G62U, the “self-cleavage kobs at 10000 uM GlcN6P” value is below 1e-05 s⁻¹. The same measure, in the same setting: in the case of A42G C58G G66A it was 5.14e-05 ± 1.9e-05 s⁻¹. In the case of G38C U49A G51U C71U, the “self-cleavage kobs at 10000 uM GlcN6P” value is below 1e-05 s⁻¹. As for C10A G59U, the “self-cleavage kobs at 10000 uM GlcN6P” value turned out to be 7.46e-05 ± 7.9e-06 s⁻¹. Take U46G C68U C71U: the “self-cleavage kobs at 10000 uM GlcN6P” value was found to be 8.22e-05 ± 1.3e-05 s⁻¹.

For A33G A42C U47C G60A, the “self-cleavage kobs at 10000 uM GlcN6P” value is below 1e-05 s⁻¹. A15U A39G U57C: the “self-cleavage kobs at 10000 uM GlcN6P” value is 6.65e-05 ± 1.8e-05 s⁻¹. For the variant A42U G44C G62U C70G, the “self-cleavage kobs at 10000 uM GlcN6P” value was below 1e-05 s⁻¹.

For the variant C10U A12G G13U A14C G41A, the “self-cleavage kobs at 10000 uM GlcN6P” value was below 1e-05 s⁻¹. The same measure, in the same setting: in the case of C11U U47A U69A it was 4.5e-05 ± 1.5e-05 s⁻¹; in that of C50G U54C C71U, 4.14e-05 ± 1.5e-05 s⁻¹.

In another series the parent is B1. Nature of the series: self-cleavage kobs at 2500 uM GlcN6P; higher = faster cleavage; RNA array. The settings on record: with glucosamine-6-phosphate. The method in brief: as §1
Turning to C10G A42G G43A, the “self-cleavage kobs at 2500 uM GlcN6P” value is below 1e-05 s⁻¹. The same measure, in the same setting: in the case of A14G U46C U54A C71A it was 0.000844 ± 0.00027 s⁻¹; in that of G32A U45C A52G, below 1e-05 s⁻¹. With A42G C61A C70A, the “self-cleavage kobs at 2500 uM GlcN6P” value is below 1e-05 s⁻¹.

Take C34G A42C A48G: the “self-cleavage kobs at 2500 uM GlcN6P” value was below 1e-05 s⁻¹. Turning to A6G U54G C70U, the “self-cleavage kobs at 2500 uM GlcN6P” value was determined as 0.0001 ± 2.2e-05 s⁻¹.
